What was measured:
[1] = biological target: Cytotoxic T-lymphocyte-associated protein 4 (CTLA4), human (human) (UniProt P16410); experiment: cell-based or functional assay
[2] = biological target: Programmed cell death protein 1 (PD1), human (human) (UniProt Q15116); experiment: cell-based or functional assay

XmAb20717 (bispecific antibody) gave an IL-2 secretion from SEB-stimulated human PBMC (ELISA), fold increase versus a mixture of XENP20111 and XENP20059 [1] of 1.6 fold and an IL-2 secretion from SEB-stimulated human PBMC (ELISA), fold increase versus a mixture of XENP20111 and XENP20059 [2] of 1.6 fold.
